Experimental data reported in article PMC8099430, “CM1-driven assembly and activation of yeast γ-tubulin small complex underlies microtubule nucleation” (eLife, 2021).

B1: Spc97p (natural protein, S. cerevisiae)
chain: MEIKEVDDRAELLRYTNNIPLLGKLVNHQPLWSTNPKLKSFSLEKISAPDQRRVQEALVVKDLLNVLIGLEGTYIRYFNDYEPSDPETPIEFKIAKKMDPSFKTFSRRIVRYGKQYMILTRAYEKWSDTSFGMVLQRFAYEIRRFLEDVYLKTLVERLERDFNKVPNFSIRELEQIINETEVNKQMELLYNIYEEIFREIEERRTNQSSQEDFNNFMDSMKNESSLHLRLMVAFDTTVYPVPKGGAILKIFQQKILENLGDRSSVMFLKKLLNNISQDYCTMLYEWLTQGILNDPYQEFMTYDDLEGKTDNIFDTRDRAWDTQYFIRKDVLLRDCDSEEDKNLLFKMLRTGILLKVVRASLQIPTIPSNSSDITIQEINDFADLMEGSNLELYVDKCYSRANEIFLKLFFQGYDLINVLKHLQQIFLGYQSGHNVLKFLTKNMGELTKHYRNDNNANYDKLLQNFELERQSENPNNLMRQLLMIQFDTETLPQVLSHYLQIYPEVPENNSANDDSDPLMHANNFKNMNAILFDELSKERTGAYHGSNLELYTPKSAIYHLKFDINIPYPLNIIISRTCMIKYQIILRYQLVLQYHSRLLDETWMDLNKTPSWKYRGYSHTVKRRIVRATRVLHAKMNHFIKTIMEYFNQNVIDKEVYSLEKCYRNPTLAVAIQNELEGGLTNIMTNRCLSDLIPLQLQIFDIVYKFCKFIKSMRAKLCQLDPVLYEKHKSGMMKTLNEGYRTNNGGQEDVGYQEDAALELIQKLIEYISNASSIFRKCLINFTQELSTEKFDFYDSSSVDAAGIERVLYSIVPPRSASASSQR
notes: Spc97p, S. cerevisiae homologue of GCP2; the 712 a.a. built in the model are said to be 87% of the protein; also called GCP2 homologue; source: pFastBac-Spc97p construct; purified as part of γTuSC, prepared essentially as described (Vinh et al., 2002; Lyon et al., 2016)

Assays:
[1] = molecular target: γTuSC (Saccharomyces cerevisiae) (UniProt P53378); details: cited from earlier work
Spc98p [2] = molecular target: T1, Spc98p (S. cerevisiae, UniProt P53540 1-846); experiment: cryo-EM structure; γTuRC^WT helical filaments of γTuSC with Spc110p^1-220 (open and closed classes); 40 mM HEPES pH 7.5, 2 mM MgCl2, 1 mM EGTA, 1 mM GDP, 100 mM KCl, 1 mM DTT, 2.5% glycerol; details: both partners purified
T1 construct: Spc98p, S. cerevisiae homologue of GCP3; the 674 a.a. built in the model are said to be 80% of the protein; also called GCP3 homologue; source: pFastBac-Spc98p construct; purified as part of γTuSC, prepared essentially as described (Vinh et al., 2002; Lyon et al., 2016)
T1 sequence: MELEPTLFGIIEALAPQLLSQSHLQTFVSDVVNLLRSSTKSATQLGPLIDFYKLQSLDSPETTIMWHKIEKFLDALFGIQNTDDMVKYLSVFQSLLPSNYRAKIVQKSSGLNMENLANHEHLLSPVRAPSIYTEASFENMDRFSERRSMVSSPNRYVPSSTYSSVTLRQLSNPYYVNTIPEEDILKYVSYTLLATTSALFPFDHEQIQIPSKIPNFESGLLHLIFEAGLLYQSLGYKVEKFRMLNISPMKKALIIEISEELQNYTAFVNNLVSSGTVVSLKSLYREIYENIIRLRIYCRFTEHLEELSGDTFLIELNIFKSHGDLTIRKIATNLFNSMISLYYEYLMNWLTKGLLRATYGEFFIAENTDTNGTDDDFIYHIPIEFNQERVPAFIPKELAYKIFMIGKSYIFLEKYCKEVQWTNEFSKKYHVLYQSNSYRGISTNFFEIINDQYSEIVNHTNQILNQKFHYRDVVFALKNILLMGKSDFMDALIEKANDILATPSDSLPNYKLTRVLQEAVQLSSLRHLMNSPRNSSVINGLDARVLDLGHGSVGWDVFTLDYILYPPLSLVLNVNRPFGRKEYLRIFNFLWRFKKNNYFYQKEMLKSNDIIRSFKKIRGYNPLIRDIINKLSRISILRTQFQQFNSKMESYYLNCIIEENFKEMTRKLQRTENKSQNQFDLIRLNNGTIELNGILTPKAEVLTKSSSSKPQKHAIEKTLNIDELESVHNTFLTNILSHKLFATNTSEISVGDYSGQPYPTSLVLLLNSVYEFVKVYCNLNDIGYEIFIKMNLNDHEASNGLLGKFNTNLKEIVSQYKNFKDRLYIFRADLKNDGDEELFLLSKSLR

Spc97p [3] = molecular target: B1; experiment: as above; details: both partners purified
Spc97p [4] = molecular target: B1; experiment: cryo-EM structure; γTuRC^SS helical filaments (disulfide-trapped closed state) of γTuSC^SS with Spc110p^1-220; 40 mM HEPES pH 7.5, 2 mM MgCl2, 1 mM EGTA, 0.5 mM GTP, 100 mM KCl, 1 mM oxidized glutathione, 2.5% glycerol; details: both partners purified
Spc98p [5] = molecular target: T1, Spc98p; experiment: as above; details: both partners purified
[6] = molecular target: the molecule itself; experiment: cryo-EM structure; γTuRC^WT helical filaments of γTuSC with Spc110p^1-220 (open and closed classes); 40 mM HEPES pH 7.5, 2 mM MgCl2, 1 mM EGTA, 1 mM GDP, 100 mM KCl, 1 mM DTT, 2.5% glycerol
Spc97p [7] = molecular target: B1; experiment: cross-linking; XL-MS; DSS (0.44 mM, 3 min, RT) or EDC (5.4 mM plus 2.7 mM Sulfo-NHS, 30 min, RT); 0.4 µM γTuSC and 0.8 µM Spc110; 40 mM HEPES pH 7.0, 150 mM KCl; details: both partners purified

γTuSC (from UniProt P53378)
Kd [1]: 2000 nM

B1
binding result (Spc98p [2]): binds

B2: γ-tubulin (Tub4p) (natural protein, S. cerevisiae)
chain: MGGEIITLQAGQCGNHVGKFLWSQLAKEHAIGTDGLSQLPDSSTERDDDTKPFFRENSRNKFTPRAIMMDSEPSVIADVENTFRGFFDPRNTWVASDGASAGNSWANGYDIGTRNQDDILNKIDKEIDSTDNFEGFQLLHSVAGGTGSGLGSNLLEALCDRYPKKILTTYSVFPARSSEVVVQSYNTILALRRLIEDSDATVVFDNASLLNISGKVFRNPNIDLQHTNQLISTIISSVTNSIRFPSYMYSSMSSIYSTLIPSPELHFLSPSFTPFTSDYIHDDIAHKGHSSYDVMLDLLDPSNSLVSTAMNNPTYFNVYNTIIGNVEPRQISRAMTKLQQRIKFPSWSSSAMHVNIGRRSPYLPLQPNENEVSGMMLSNMSTVVNVFENACNTFDKVFAKGAFLNNYNVGDLFQSMQNVQDEFAESREVVQSLMEDYVAAEQDSYLDDVLVDDENMVGELEEDLDADGDHKLV
notes: Tub4p, S. cerevisiae γ-tubulin; the 453 a.a. built in the model are said to be 96% of the protein; source: pFastBac-Tub4p construct; purified as part of γTuSC, prepared essentially as described (Vinh et al., 2002; Lyon et al., 2016)
binding result (Spc97p [3]): binds
binding result (Spc98p [2]): binds

B3: Tub4p S58C/G288C (natural protein, S. cerevisiae)
chain: MGGEIITLQAGQCGNHVGKFLWSQLAKEHAIGTDGLSQLPDSSTERDDDTKPFFRENCRNKFTPRAIMMDSEPSVIADVENTFRGFFDPRNTWVASDGASAGNSWANGYDIGTRNQDDILNKIDKEIDSTDNFEGFQLLHSVAGGTGSGLGSNLLEALCDRYPKKILTTYSVFPARSSEVVVQSYNTILALRRLIEDSDATVVFDNASLLNISGKVFRNPNIDLQHTNQLISTIISSVTNSIRFPSYMYSSMSSIYSTLIPSPELHFLSPSFTPFTSDYIHDDIAHKCHSSYDVMLDLLDPSNSLVSTAMNNPTYFNVYNTIIGNVEPRQISRAMTKLQQRIKFPSWSSSAMHVNIGRRSPYLPLQPNENEVSGMMLSNMSTVVNVFENACNTFDKVFAKGAFLNNYNVGDLFQSMQNVQDEFAESREVVQSLMEDYVAAEQDSYLDDVLVDDENMVGELEEDLDADGDHKLV
modifications: engineered cysteines oxidised to disulfides (overnight dialysis into 1 mM oxidized glutathione)
notes: Tub4p, S. cerevisiae γ-tubulin, with S58C and G288C; also called γ-tubulin engineered with disulfides; γ-tubulin of γTuSC^SS / γTuRC^SS; source: pFastBac-Tub4p^S58C/G288C construct (Kollman et al., 2015); purified in filaments prepared essentially as described (Kollman et al., 2010; Kollman et al., 2015)
binding result (Spc97p [4]): binds
binding result (Spc98p [5]): binds

B4: Spc110p^1-220 (domain or fragment, S. cerevisiae, UniProt P32380 1-220, looked up)
chain: MDEASHLPNGSLKNMEFTPVGFIKSKRNTTQTQVVSPTKVPNANNGDENEGPVKKRQRRSIDDTIDSTRLFSEASQFDDSFPEIKANIPPSPRSGNVDKSRKRNLIDDLKKDVPMSQPLKEQEVREHQMKKERFDRALESKLLGKRHITYANSDISNKELYINEIKSLKHEIKELRKEKNDTLNNYDTLEEETDDLKNRLQALEKELDAKNKIVNSRKVD
notes: also called Spc110^1-220; N-terminal domain of Spc110p; source: pFastBac-GST-Spc110p^1-220 construct; purified in filaments with γTuSC, prepared essentially as described (Kollman et al., 2010; Kollman et al., 2015)
binding result [6]: binds
binding result (Spc97p [4]): binds
binding result (Spc98p [5]): binds

B5: Spc110p^1-401-GST (domain or fragment, S. cerevisiae, UniProt P32380 1-401, looked up)
chain: MDEASHLPNGSLKNMEFTPVGFIKSKRNTTQTQVVSPTKVPNANNGDENEGPVKKRQRRSIDDTIDSTRLFSEASQFDDSFPEIKANIPPSPRSGNVDKSRKRNLIDDLKKDVPMSQPLKEQEVREHQMKKERFDRALESKLLGKRHITYANSDISNKELYINEIKSLKHEIKELRKEKNDTLNNYDTLEEETDDLKNRLQALEKELDAKNKIVNSRKVDDHSGCIEEREQMERKLAELERKLKTVKDQVLELENNSDVQSLKLRSKEDELKNLMNELNELKSNAEEKDTQLEFKKNELRKRTNELNELKIKSDEMDLQLKQKQNESKRLKDELNELETKFSENGSQSSAKENELKMLKNKIAELEEEISTKNSQLIAKEGKLASLMAQLTQLESKLNQRD
notes: Spc110p, S. cerevisiae, residues 1-401; also called Spc110^1-401-GST; Spc110^1-401; not shown: GST, C-terminal, kept
binding result (Spc97p [7]): binds
